The data set has as its target HSP90β/CDC37 heterocomplex of purified recombinant HSP90β and CDC37 (in vitro kinase assay), P08238.

Sequence of HSP90β/CDC37 heterocomplex of purified recombinant HSP90β and CDC37 (in vitro kinase assay), P08238 (P08238 whole entry, chain 1 of 2): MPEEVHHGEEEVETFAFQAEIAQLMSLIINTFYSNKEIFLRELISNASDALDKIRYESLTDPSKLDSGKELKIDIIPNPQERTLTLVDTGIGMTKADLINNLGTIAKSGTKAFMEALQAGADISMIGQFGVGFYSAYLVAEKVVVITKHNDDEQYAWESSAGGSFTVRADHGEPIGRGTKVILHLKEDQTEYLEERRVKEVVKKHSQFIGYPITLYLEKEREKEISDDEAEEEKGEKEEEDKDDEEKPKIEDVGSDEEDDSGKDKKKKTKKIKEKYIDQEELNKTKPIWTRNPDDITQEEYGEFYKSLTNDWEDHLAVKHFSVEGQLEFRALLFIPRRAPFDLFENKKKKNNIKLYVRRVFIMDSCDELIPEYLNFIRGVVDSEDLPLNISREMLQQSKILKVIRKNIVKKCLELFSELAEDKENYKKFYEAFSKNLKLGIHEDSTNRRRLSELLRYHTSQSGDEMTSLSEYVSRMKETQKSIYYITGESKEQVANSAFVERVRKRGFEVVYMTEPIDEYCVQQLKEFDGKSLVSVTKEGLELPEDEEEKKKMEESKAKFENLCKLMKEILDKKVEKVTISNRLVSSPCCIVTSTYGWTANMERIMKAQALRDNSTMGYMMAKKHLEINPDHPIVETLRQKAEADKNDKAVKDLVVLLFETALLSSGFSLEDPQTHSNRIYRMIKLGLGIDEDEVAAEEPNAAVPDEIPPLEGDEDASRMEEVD
Sequence of HSP90β/CDC37 heterocomplex of purified recombinant HSP90β and CDC37 (in vitro kinase assay), P08238 (chain, as listed by the source, chain 2 of 2): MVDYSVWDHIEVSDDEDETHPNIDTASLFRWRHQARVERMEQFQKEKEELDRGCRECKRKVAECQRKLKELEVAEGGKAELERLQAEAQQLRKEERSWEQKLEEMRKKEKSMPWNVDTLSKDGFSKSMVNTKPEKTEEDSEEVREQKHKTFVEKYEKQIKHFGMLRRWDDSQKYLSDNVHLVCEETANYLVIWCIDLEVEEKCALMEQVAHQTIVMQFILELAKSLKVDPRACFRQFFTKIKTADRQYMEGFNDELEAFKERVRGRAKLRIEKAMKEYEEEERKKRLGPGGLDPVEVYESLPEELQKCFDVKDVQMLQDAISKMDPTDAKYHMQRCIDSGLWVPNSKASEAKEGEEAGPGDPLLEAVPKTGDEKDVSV

B1: purified recombinant SGK3 (Thermo Scientific #PV3859) (protein)
chain: MQRDHTMDYKESCPSVSIPSSDEHREKKKRFTVYKVLVSVGRSEWFVFRRYAEFDKLYNTLKKQFPAMALKIPAKRIFGDNFDPDFIKQRRAGLNEFIQNLVRYPELYNHPDVRAFLQMDSPKHQSDPSEDEDERSSQKLHSTSQNINLGPSGNPHAKPTDFDFLKVIGKGSFGKVLLAKRKLDGKFYAVKVLQKKIVLNRKEQKHIMAERNVLLKNVKHPFLVGLHYSFQTTEKLYFVLDFVNGGELFFHLQRERSFPEHRARFYAAEIASALGYLHSIKIVYRDLKPENILLDSVGHVVLTDFGLCKEGIAISDTTTTFCGTPEYLAPEVIRKQPYDNTVDWWCLGAVLYEMLYGLPPFYCRDVAEMYDNILHKPLSLRPGVSLTAWSILEELLEKDRQNRLGAKEDFLEIQNHPFFESLSWADLVQKKIPPPFNPNVAGPDDIRNFDTAFTEETVPYSVCVSSDYSIVNASVLEADDAFVGFSYAPPSEDLFL
As for B1, the “phosphorylation of HSP90β (in vitro kinase assay, Western blot)” value was “SGK3 increased phosphorylation of HSP90β, and that phosphorylation was further increased in the presence of KBU2046”.

B2: purified recombinant RAF1 (Raf-1, EMD Millipore #17-360) (protein)
chain: SQPKTPVPAQRERAPVSGTQEKNKIRPRGQRDSSYYWEIEASEVMLSTRIGSGSFGTVYKGKWHGDVAVKILKVVDPTPEQFQAFRNEVAVLRKTRHVNILLFMGYMTKDNLAIVTQWCEGSSLYKHLHVQETKFQMFQLIDIARQTAQGMDYLHAKNIIHRDMKSNNIFLHEGLTVKIGDFGLATVKSRWSGSQQVEQPTGSVLWMAPEVIRMQDNNPFSFQSDVYSYGIVLYELMTGELPYSHINNRDQIIFMVGRGYASPDLSKLYKNCPKAMKRLVADCVKKVKEERPLFPQILSSIELLQHSLPKINRSASEPSLHRAAHTEDINACTLTTSPRLPVF
For the protein B2, the “RAF1 activity (autophosphorylation of RAF1 in an in vitro kinase assay, Western blot)” value is reported as “In the absence of CDC37/HSP90β heterocomplex, RAF1 activity was much lower”.
